Where no end group is shown, it is not given here. The star is where a group is joined. Biotin = O=C1N[C@H]2[C@H](CS[C@H]2CCCCC(=O)*)N1
B1: human recombinant 30 kDa inhibin A (ligand)
chain 1: STPLMSWPWSPSALRLLQRPPEEPAAHANCHRVALNISFQELGWERWIVYPPSFIFHYCHGGCGLHIPPNLSLPVPGAPPTPAQPYSLLPGAQPCCAALPGTMRPLHVRTTSDGGYSFKYETVPNLLTQHCACI
chain 2: GLECDGKVNICCKKQFFVSFKDIGWNDWIIAPSGYHANYCEGECPSHIAGTSGSSLSFHSTVINHYRMRGHSPFANLKSCCVPTKLRPMSMLYYDDGQNIIKKDIQNMIVEECGCS

Molecular target: antiserum As #128 (sheep polyclonal, raised to the alpha subunit of human inhibin, boosted with human recombinant 30-kDa inhibin)
Experiment: RIA, iodinated hr-inhibin tracer

Row | Binder | ED50 [µM]
1 | B1 | 0.002
2 | H-CSKKGPNLSLPVPGAPPTP [non-biotinylated peptide #20 with NH2-Cys-Ser-Lys-Lys-Gly amino terminal spacer] | 0.15

Molecular target: antiserum As #41 (sheep polyclonal, raised to the alpha subunit of human inhibin)
Experiment: RIA, iodinated hr-inhibin tracer

Row | Binder | ED50 [µM]
3 | H-CSKKGWSPSALRLLQRPPE [non-biotinylated peptide #5 with NH2-Cys-Ser-Lys-Lys-Gly amino terminal spacer] | 0.0004

Molecular target: rabbit antiserum #1989
Experiment: RIA, iodinated hr-inhibin tracer

Row | Binder | ED50 [µM]
4 | B1 | 0.0001
5 | H-CSKKGRTTSDGGYSFKYET [non-biotinylated peptide #30 with NH2-Cys-Ser-Lys-Lys-Gly amino terminal spacer] | 2.5

Molecular target: antiserum As #128 (sheep polyclonal, raised to the alpha subunit of human inhibin, boosted with human recombinant 30-kDa inhibin)
Experiment: RIA, competition with iodinated inhibin

Row | Binder | ED50 [µM]
6 | Biotin-SGSGGTMRPLHVRTTSDG [biotinylated peptide #28 (Set 1) of the human (alpha)C subunit] | 0.625
7 | Biotin-SGSGPLHVRTTSDGGYSF [biotinylated peptide #29 (Set 1) of the human (alpha)C subunit] | 0.156
8 | Biotin-SGSGRTTSDGGYSFKYET [biotinylated peptide #30 (Set 1) of the human (alpha)C subunit] | 0.6
9 | Biotin-SGSGDGGYSFKYETVPNL [biotinylated peptide #31 (Set 1) of the human (alpha)C subunit] | 1.4
10 | Biotin-SGSGSFKYETVPNLLTQH [biotinylated peptide #32 (Set 1) of the human (alpha)C subunit] | 2.5
11 | Biotin-SGSGETVPNLLTQHCACI (cysteine pairing not given here) [biotinylated peptide #33 (Set 1) of the human (alpha)C subunit] | 2.5
12 | Biotin-SGSGWSPSALRLLQRPPE [biotinylated peptide #5 (Set 1) of the human (alpha)C subunit] | 3.8
13 | Biotin-SGSGSTPLMSWPWSPSAL [biotinylated peptide #3 (Set 1) of the human (alpha)C subunit] | 38
14 | Biotin-SGSGMSWPWSPSALRLLQ [biotinylated peptide #4 (Set 1) of the human (alpha)C subunit] | 3.8
15 | Biotin-SGSGALRLLQRPPEEPAA [biotinylated peptide #6 (Set 1) of the human (alpha)C subunit] | 1.8
16 | Biotin-SGSGLQRPPEEPAAHANC [biotinylated peptide #7 (Set 1) of the human (alpha)C subunit] | 1.6
17 | Biotin-SGSGPEEPAAHANCHRVA [biotinylated peptide #8 (Set 1) of the human (alpha)C subunit] | 4.8
18 | Biotin-SGSGHYCHGGCGLHIPPN (cysteine pairing not given here) [biotinylated peptide #17 (Set 1) of the human (alpha)C subunit] | 10
19 | Biotin-SGSGGGCGLHIPPNLSLP [biotinylated peptide #18 (Set 1) of the human (alpha)C subunit] | 0.06

Molecular target: antiserum As #41 (sheep polyclonal, raised to the alpha subunit of human inhibin)
Experiment: RIA, competition with iodinated inhibin

Row | Binder | ED50 [µM]
20 | Biotin-SGSGGTMRPLHVRTTSDG [biotinylated peptide #28 (Set 1) of the human (alpha)C subunit] | 4
21 | Biotin-SGSGPLHVRTTSDGGYSF [biotinylated peptide #29 (Set 1) of the human (alpha)C subunit] | 5
22 | Biotin-SGSGRTTSDGGYSFKYET [biotinylated peptide #30 (Set 1) of the human (alpha)C subunit] | 2.5
23 | Biotin-SGSGDGGYSFKYETVPNL [biotinylated peptide #31 (Set 1) of the human (alpha)C subunit] | 2.4
24 | Biotin-SGSGSFKYETVPNLLTQH [biotinylated peptide #32 (Set 1) of the human (alpha)C subunit] | 0.29
25 | Biotin-SGSGETVPNLLTQHCACI (cysteine pairing not given here) [biotinylated peptide #33 (Set 1) of the human (alpha)C subunit] | 4
26 | Biotin-SGSGWSPSALRLLQRPPE [biotinylated peptide #5 (Set 1) of the human (alpha)C subunit] | 1.5e-05
27 | Biotin-SGSGMSWPWSPSALRLLQ [biotinylated peptide #4 (Set 1) of the human (alpha)C subunit] | 1.3
28 | Biotin-SGSGALRLLQRPPEEPAA [biotinylated peptide #6 (Set 1) of the human (alpha)C subunit] | 0.026
29 | Biotin-SGSGLQRPPEEPAAHANC [biotinylated peptide #7 (Set 1) of the human (alpha)C subunit] | 1.25
30 | Biotin-SGSGHYCHGGCGLHIPPN (cysteine pairing not given here) [biotinylated peptide #17 (Set 1) of the human (alpha)C subunit] | 1.05
31 | Biotin-SGSGGGCGLHIPPNLSLP [biotinylated peptide #18 (Set 1) of the human (alpha)C subunit] | 1.05

Molecular target: rabbit antiserum #1989
Experiment: RIA, competition with iodinated inhibin

Row | Binder | ED50 [µM]
32 | Biotin-SGSGGTMRPLHVRTTSDG [biotinylated peptide #28 (Set 1) of the human (alpha)C subunit] | > 2.5
33 | Biotin-SGSGPLHVRTTSDGGYSF [biotinylated peptide #29 (Set 1) of the human (alpha)C subunit] | > 2.5
34 | Biotin-SGSGRTTSDGGYSFKYET [biotinylated peptide #30 (Set 1) of the human (alpha)C subunit] | < 0.01
35 | Biotin-SGSGDGGYSFKYETVPNL [biotinylated peptide #31 (Set 1) of the human (alpha)C subunit] | > 2.5
36 | Biotin-SGSGSFKYETVPNLLTQH [biotinylated peptide #32 (Set 1) of the human (alpha)C subunit] | > 2.5
37 | Biotin-SGSGETVPNLLTQHCACI (cysteine pairing not given here) [biotinylated peptide #33 (Set 1) of the human (alpha)C subunit] | > 2.5
38 | Biotin-SGSGWSPSALRLLQRPPE [biotinylated peptide #5 (Set 1) of the human (alpha)C subunit] | > 2.5
39 | Biotin-SGSGSTPLMSWPWSPSAL [biotinylated peptide #3 (Set 1) of the human (alpha)C subunit] | > 2.5
40 | Biotin-SGSGMSWPWSPSALRLLQ [biotinylated peptide #4 (Set 1) of the human (alpha)C subunit] | > 2.5
41 | Biotin-SGSGALRLLQRPPEEPAA [biotinylated peptide #6 (Set 1) of the human (alpha)C subunit] | > 2.5
42 | Biotin-SGSGLQRPPEEPAAHANC [biotinylated peptide #7 (Set 1) of the human (alpha)C subunit] | > 2.5
43 | Biotin-SGSGPEEPAAHANCHRVA [biotinylated peptide #8 (Set 1) of the human (alpha)C subunit] | > 2.5
44 | Biotin-SGSGHYCHGGCGLHIPPN (cysteine pairing not given here) [biotinylated peptide #17 (Set 1) of the human (alpha)C subunit] | > 2.5
45 | Biotin-SGSGGGCGLHIPPNLSLP [biotinylated peptide #18 (Set 1) of the human (alpha)C subunit] | > 2.5

Molecular target: antibody pair of the (alpha)C IFMA: As #128 as coating antibody and As #41 as label
Experiment: inhibin IFMA; #5 on As #128 and #5 on As #41

Row | Binder | % suppression at 2ng inhibin [%]
46 | H-CSKKGWSPSALRLLQRPPE [non-biotinylated peptide #5 with NH2-Cys-Ser-Lys-Lys-Gly amino terminal spacer] | 73

Molecular target: antiserum As #128 (sheep polyclonal, raised to the alpha subunit of human inhibin, boosted with human recombinant 30-kDa inhibin)
Experiment: inhibin IFMA; #5 on As #128, buffer on As #41

Row | Binder | % suppression at 2ng inhibin [%]
47 | H-CSKKGWSPSALRLLQRPPE [non-biotinylated peptide #5 with NH2-Cys-Ser-Lys-Lys-Gly amino terminal spacer] | 55

Molecular target: antiserum As #41 (sheep polyclonal, raised to the alpha subunit of human inhibin)
Experiment: inhibin IFMA; buffer on As #128, #5 on As #41

Row | Binder | % suppression at 2ng inhibin [%]
48 | H-CSKKGWSPSALRLLQRPPE [non-biotinylated peptide #5 with NH2-Cys-Ser-Lys-Lys-Gly amino terminal spacer] | 67

Molecular target: antiserum As #128 (sheep polyclonal, raised to the alpha subunit of human inhibin, boosted with human recombinant 30-kDa inhibin)
Experiment: inhibin IFMA; #20 on As #128, buffer on As #41

Row | Binder | % suppression at 2ng inhibin [%]
49 | H-CSKKGPNLSLPVPGAPPTP [non-biotinylated peptide #20 with NH2-Cys-Ser-Lys-Lys-Gly amino terminal spacer] | 13

Molecular target: antiserum As #41 (sheep polyclonal, raised to the alpha subunit of human inhibin)
Experiment: inhibin IFMA; buffer on As #128, #30 on As #41

Row | Binder | % suppression at 2ng inhibin [%]
50 | H-CSKKGRTTSDGGYSFKYET [non-biotinylated peptide #30 with NH2-Cys-Ser-Lys-Lys-Gly amino terminal spacer] | 28

Molecular target: antiserum As #41 (sheep polyclonal, raised to the alpha subunit of human inhibin)
Experiment: competitive 2-site assay, peptides incubated with iodinated As #41

Row | Binder | % contribution (competition with inhibin) [%]
51 | Biotin-SGSGRTTSDGGYSFKYET [biotinylated peptide #30 (Set 1) of the human (alpha)C subunit] | 50
52 | Biotin-SGSGWSPSALRLLQRPPE [biotinylated peptide #5 (Set 1) of the human (alpha)C subunit] | 50

Molecular target: antiserum As #41 (sheep polyclonal, raised to the alpha subunit of human inhibin)
Experiment: two-site assay, biotinylated As #41 pre-incubated with peptide, inhibin on As #128 plate

Row | Binder | % inhibition [%]
53 | H-CSKKGWSPSALRLLQRPPE [non-biotinylated peptide #5 with NH2-Cys-Ser-Lys-Lys-Gly amino terminal spacer] | 50

Molecular target: antiserum As #128 (sheep polyclonal, raised to the alpha subunit of human inhibin, boosted with human recombinant 30-kDa inhibin)
Experiment: two-site assay, peptide pre-incubated on As #128 coated plate, then hr-inhibin, biotinylated As #41

Row | Binder | % suppression in binding [%]
54 | H-CSKKGWSPSALRLLQRPPE [non-biotinylated peptide #5 with NH2-Cys-Ser-Lys-Lys-Gly amino terminal spacer] | 65
55 | H-CSKKGPNLSLPVPGAPPTP [non-biotinylated peptide #20 with NH2-Cys-Ser-Lys-Lys-Gly amino terminal spacer] | 23
